We go through one protein from paper doi:10.1101/2022.01.04.474899 (bioRxiv, 2022).

The series concerns the molecule itself. Description: SDS-PAGE immunoblot. Background: A western blot detects proteins with antibodies after separation by electrophoresis.

B1: recombinant human asprosin with C-terminal 2×Strep-tag II (natural protein, UniProt P35555 2732-2871, looked up)
chain: STNETDASNIEDQSETEANVSLASWDVEKTAIFAFNISHVSNKVRILELLPALTTLTNHNRYLIESGNEDGFFKINQKEGISYLHFTKKKPVAGTYSLQISSTPLYKKKELNQLEDKYDKDYLSGELGDNLKMKIQVLLH
For B1, the stoichiometry N (as a rule, a count of units in the complex or per binding partner) is 4.
